Each block holds one binder with its values, some of them ahead of it.
What was measured:
Cyno PD-L2-Fc = molecular target: T1, Cyno PD-L2-Fc (cyno, UniProt A0A2K5U5Z4 20-219); assay: ForteBio Octet, IgG on sensor, Fc-fusion antigen in solution (avid)
T1 construct: not shown: Fc part of the fusion
T1 sequence: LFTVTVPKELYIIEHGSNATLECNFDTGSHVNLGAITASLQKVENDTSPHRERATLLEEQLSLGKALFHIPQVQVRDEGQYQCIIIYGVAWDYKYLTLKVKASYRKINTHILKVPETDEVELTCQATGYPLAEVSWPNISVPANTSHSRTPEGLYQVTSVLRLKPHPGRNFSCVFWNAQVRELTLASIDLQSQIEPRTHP
Description: (§1) ForteBio KD measurements—ForteBio affinity measurements were performed on an Octet RED384 generally as previously described (sec, e.g., Estep et al., 2013). Briefly, ForteBio affinity measurements were performed by loading IgGs on-line onto AHQ sensors. Sensors were equilibrated off-line in assay buffer for 30 min and then monitored on-line for 60 seconds for baseline establishment. Sensors with loaded IgGs were exposed to 100 nM antigen for 3 minutes, and afterwards were transferred to assay buffer for 3 min for off-rate measurement. For monovalent affinity assessment Fabs were used instead of IgGs. For this assessment the unbiotinylated Fc fusion antigen was loaded on-line onto the AHQ sensors. Sensors were equilibrated off-line in assay buffer for 30 min and then monitored on-line for 60 seconds for baseline establishment. Sensors with loaded antigen were exposed to 100 nM Fab for 3 minutes, and afterwards they were transferred to assay buffer for 3 min for off-rate measurement. All kinetics were analyzed using the 1:1 binding model.

Human PD-L2-Fc [1] = molecular target: T2, Human PD-L2-Fc (human, UniProt Q9BQ51 20-220); assay: as above
T2 construct: not shown: Fc part of the fusion
T2 sequence: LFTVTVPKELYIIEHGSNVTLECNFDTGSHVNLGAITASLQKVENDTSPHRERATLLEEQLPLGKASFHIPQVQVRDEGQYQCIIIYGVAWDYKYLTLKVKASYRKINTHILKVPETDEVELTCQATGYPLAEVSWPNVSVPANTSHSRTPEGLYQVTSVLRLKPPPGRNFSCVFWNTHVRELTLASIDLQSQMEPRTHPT
Description: as §1

Mouse PD-L1-Fc [2] = molecular target: T3, Mouse PD-L1-Fc (mouse, UniProt Q9EP73 19-238, limits assumed); assay: as above
T3 construct: also called murine PD-L1; not shown: Fc part of the fusion
Description: as §1

Cyno PD-L1-Fc = molecular target: T4, Cyno PD-L1-Fc (cyno, UniProt G7PSE7 19-238); assay: as above
T4 construct: not shown: The Fc part of the fusion and any linker to it
Description: as §1

Human PD-L1-Fc [3] = molecular target: T5, Human PD-L1-Fc (human, UniProt Q9NZQ7 19-238); assay: as above
T5 construct: not shown: Fc part of the fusion
Description: as §1

Mouse PD-L2-Fc [4] = molecular target: T6, Mouse PD-L2-Fc (mouse, UniProt Q9WUL5 20-219, limits assumed); assay: column 'Species cross-reactivity'
T6 construct: also called murine PD-L2; not shown: Fc part of the fusion
T6 sequence (looked up): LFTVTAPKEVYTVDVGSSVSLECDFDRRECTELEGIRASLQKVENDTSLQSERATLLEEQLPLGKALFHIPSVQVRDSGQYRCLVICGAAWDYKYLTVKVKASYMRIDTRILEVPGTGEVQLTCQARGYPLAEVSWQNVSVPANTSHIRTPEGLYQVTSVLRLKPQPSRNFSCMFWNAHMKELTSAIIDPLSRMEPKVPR

[5] = molecular target: T7, PD-L2 on CHO-PD-L2 cells (Promega blockade system) (UniProt Q9BQ51 20-273, limits assumed); assay: cell-based or functional assay
T7 sequence (looked up): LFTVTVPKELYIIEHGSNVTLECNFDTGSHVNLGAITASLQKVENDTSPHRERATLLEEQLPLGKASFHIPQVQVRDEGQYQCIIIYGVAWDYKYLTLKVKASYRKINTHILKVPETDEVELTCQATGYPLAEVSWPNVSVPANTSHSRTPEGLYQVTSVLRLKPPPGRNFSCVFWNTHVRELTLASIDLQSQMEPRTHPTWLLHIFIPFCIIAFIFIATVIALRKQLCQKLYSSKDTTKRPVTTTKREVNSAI

[6] = molecular target: PD-L1 on CHO-PD-L1/PDL2 cells (Promega blockade system); assay: cell-based or functional assay
[7] = molecular target: PD-L2 on CHO-PD-L1/PDL2 cells (Promega blockade system); assay: cell-based or functional assay
Human PD-L2-Fc [8] = molecular target: T2, Human PD-L2-Fc; assay: ForteBio Octet, Fc-fusion antigen on sensor, Fab in solution (monovalent)
Description: as §1

Human PD-L1-Fc [9] = molecular target: T5, Human PD-L1-Fc; assay: as above
Description: as §1

Mouse PD-L2-Fc [10] = molecular target: T6, Mouse PD-L2-Fc; assay: ForteBio Octet, IgG on sensor, Fc-fusion antigen in solution (avid)
Description: as §1

Mouse PD-L1-Fc [11] = molecular target: T3, Mouse PD-L1-Fc; assay: column 'Species cross-reactivity'
[12] = molecular target: PD-L1 on CHO-PD-L1 cells (Promega blockade system) (UniProt Q9NZQ7 19-290, limits assumed); assay: cell-based or functional assay

T4 sequence (G7PSE7 entry or part of it limits assumed): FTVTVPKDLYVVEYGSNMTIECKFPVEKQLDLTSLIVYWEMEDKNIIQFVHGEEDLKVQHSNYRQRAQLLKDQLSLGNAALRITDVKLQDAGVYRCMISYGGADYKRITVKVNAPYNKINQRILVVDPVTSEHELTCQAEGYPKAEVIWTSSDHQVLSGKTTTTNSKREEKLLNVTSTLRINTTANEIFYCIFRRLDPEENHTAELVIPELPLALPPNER
T3 sequence (Q9EP73 19-238 limits assumed): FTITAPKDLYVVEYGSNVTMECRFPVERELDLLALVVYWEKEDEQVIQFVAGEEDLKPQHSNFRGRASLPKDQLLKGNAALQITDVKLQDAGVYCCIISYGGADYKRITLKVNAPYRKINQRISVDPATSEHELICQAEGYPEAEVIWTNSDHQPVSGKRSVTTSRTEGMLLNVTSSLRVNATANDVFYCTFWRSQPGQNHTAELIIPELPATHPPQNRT

- Kd (Cyno PD-L2-Fc): 640 pM
- Kd (Human PD-L2-Fc [1]): 416 pM
- binding result (Mouse PD-L1-Fc [2]): no binding (tested: 100 nM)
- binding result (Cyno PD-L1-Fc): no binding (tested: 100 nM)
- binding result (Human PD-L1-Fc [3]): no binding (tested: 100 nM)
- binding result (Mouse PD-L2-Fc [4]): binds
- EC50 (read off the curve); luciferase fold induction, Promega CHO-PD-L2 / PD-1 Jurkat assay [Cont'd] [5]: ~200 pM
B1: ADI-20236 (antibody, V domains shown)
VH: QVQLVQSGAEVKKPGSSVKVSCKASGGTFSSHAISWVRQAPGQGLEWMGGIIPIFGWALYAQKFQGRVTITADESTSTAYMELSSLRSEDTAVYYCARPGDHRASHFDYWGQGTLVTVSS
VL: DIQMTQSPSSVSASVGDRVTITCRASQGISSWLAWYQQKPGKAPKLLIYAASSLQSGVPSRFSGSGSGTDFTLTISSLQPEDFATYYCQQANSFPITFGGGTKVEIK
notes: Vk1-12 common light chain; also called PD-L2-C1-1; cLC-PDL2 (22731)

- EC50 (read off the curve); luciferase fold induction, Promega CHO-PD-L1/PD-L2 / PD-1 Jurkat assay, combined blockade of PD-L1 and PD-L2 [Cont'd] [6]: ~200 pM
- EC50 (read off the curve); luciferase fold induction, Promega CHO-PD-L1/PD-L2 / PD-1 Jurkat assay, combined blockade of PD-L1 and PD-L2 [Cont'd] [7]: ~200 pM
B2: DiPDL candidate C1 (bispecific antibody, V domains shown)
VH 1: QVQLVQSGAEVKKPGASVKVSCKASGGTFRSYAIQWVRQAPGQGLEWMGWIIPGFGTANYAQKFQGRVTITADESTSTAYMELSSLRSEDTAVYYCARELSHGGLSYWGQGTLVTVSS
VH 2: QVQLVQSGAEVKKPGSSVKVSCKASGGTFSSHAISWVRQAPGQGLEWMGGIIPIFGWALYAQKFQGRVTITADESTSTAYMELSSLRSEDTAVYYCARPGDHRASHFDYWGQGTLVTVSS
VL: DIQMTQSPSSVSASVGDRVTITCRASQGISSWLAWYQQKPGKAPKLLIYAASSLQSGVPSRFSGSGSGTDFTLTISSLQPEDFATYYCQQANSFPITFGGGTKVEIK

- Kd (Human PD-L2-Fc [8]): 541 pM
- binding result (Human PD-L1-Fc [9]): no binding (tested: 100 nM)
B3: ADI-20236 Fab (Fab, V domains shown)
VH: QVQLVQSGAEVKKPGSSVKVSCKASGGTFSSHAISWVRQAPGQGLEWMGGIIPIFGWALYAQKFQGRVTITADESTSTAYMELSSLRSEDTAVYYCARPGDHRASHFDYWGQGTLVTVSS
VL: DIQMTQSPSSVSASVGDRVTITCRASQGISSWLAWYQQKPGKAPKLLIYAASSLQSGVPSRFSGSGSGTDFTLTISSLQPEDFATYYCQQANSFPITFGGGTKVEIK
notes: also called cLC-PDL2 (22731) Fab

- binding result (Cyno PD-L2-Fc): no binding (tested: 100 nM)
- binding result (Human PD-L2-Fc [1]): no binding (tested: 100 nM)
- Kd (Cyno PD-L1-Fc): 237 pM
- binding result (Mouse PD-L2-Fc [10]): no binding (tested: 100 nM)
- Kd (Human PD-L1-Fc [3]): 223 pM
- binding result (Mouse PD-L1-Fc [11]): binds
- EC50 (read off the curve); luciferase fold induction, Promega CHO-PD-L1 / PD-1 Jurkat assay [12]: ~100 pM
B4: ADI-20225 (antibody, V domains shown)
VH: QVQLVQSGAEVKKPGASVKVSCKASGGTFRSYAIQWVRQAPGQGLEWMGWIIPGFGTANYAQKFQGRVTITADESTSTAYMELSSLRSEDTAVYYCARELSHGGLSYWGQGTLVTVSS
VL: DIQMTQSPSSVSASVGDRVTITCRASQGISSWLAWYQQKPGKAPKLLIYAASSLQSGVPSRFSGSGSGTDFTLTISSLQPEDFATYYCQQANSFPITFGGGTKVEIK
notes: Vk1-12 common light chain; also called PD-L1-C1-1; cLC-PDL1 (22731)

- binding result (Human PD-L2-Fc [8]): no binding (tested: 100 nM)
- Kd (Human PD-L1-Fc [9]): 833 pM
B5: ADI-20225 Fab (Fab, V domains shown)
VH: QVQLVQSGAEVKKPGASVKVSCKASGGTFRSYAIQWVRQAPGQGLEWMGWIIPGFGTANYAQKFQGRVTITADESTSTAYMELSSLRSEDTAVYYCARELSHGGLSYWGQGTLVTVSS
VL: DIQMTQSPSSVSASVGDRVTITCRASQGISSWLAWYQQKPGKAPKLLIYAASSLQSGVPSRFSGSGSGTDFTLTISSLQPEDFATYYCQQANSFPITFGGGTKVEIK
notes: also called cLC-PDL1 (22731) Fab

- binding result (Cyno PD-L2-Fc): no binding (tested: 100 nM)
- binding result (Human PD-L2-Fc [1]): no binding (tested: 100 nM)
- binding result (Mouse PD-L1-Fc [2]): no binding (tested: 100 nM)
- Kd (Cyno PD-L1-Fc): 264 pM
- binding result (Mouse PD-L2-Fc [10]): no binding (tested: 100 nM)
- Kd (Human PD-L1-Fc [3]): 205 pM
- EC50 (read off the curve); luciferase fold induction, Promega CHO-PD-L1 / PD-1 Jurkat assay [12]: ~100 pM
B6: ADI-20230 (antibody, V domains shown)
VH: QVQLVQSGAEVKKPGSSVKVSCKASGGTFSSYFISWVRQAPGQGLEWMGQIIPNVGTANYAQKFQGRVTITADESTSTAYMELSSLRSEDTAVYYCARDQTAKAHLVWGQGTLVTVSS
VL: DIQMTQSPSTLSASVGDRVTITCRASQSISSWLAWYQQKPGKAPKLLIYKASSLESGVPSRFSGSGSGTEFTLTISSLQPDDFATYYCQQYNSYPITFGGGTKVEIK
notes: Vk1-05 common light chain; also called PD-L1-C2-1; cLC-PDL1 (22726)

- binding result (Human PD-L2-Fc [8]): no binding (tested: 100 nM)
- Kd (Human PD-L1-Fc [9]): 823 pM
B7: ADI-20230 Fab (Fab, V domains shown)
VH: QVQLVQSGAEVKKPGSSVKVSCKASGGTFSSYFISWVRQAPGQGLEWMGQIIPNVGTANYAQKFQGRVTITADESTSTAYMELSSLRSEDTAVYYCARDQTAKAHLVWGQGTLVTVSS
VL: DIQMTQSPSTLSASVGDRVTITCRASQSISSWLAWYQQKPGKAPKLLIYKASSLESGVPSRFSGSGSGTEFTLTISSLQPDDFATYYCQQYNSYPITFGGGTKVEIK
notes: also called cLC-PDL1 (22726) Fab

- Kd (Cyno PD-L2-Fc): 253 pM
- Kd (Human PD-L2-Fc [1]): 487 pM
- binding result (Mouse PD-L1-Fc [2]): no binding (tested: 100 nM)
- binding result (Cyno PD-L1-Fc): no binding (tested: 100 nM)
- binding result (Human PD-L1-Fc [3]): no binding (tested: 100 nM)
- binding result (Mouse PD-L2-Fc [4]): binds
- EC50 (read off the curve); luciferase fold induction, Promega CHO-PD-L2 / PD-1 Jurkat assay [Cont'd] [5]: ~200 pM
B8: ADI-20241 (antibody, V domains shown)
VH: QVQLVQSGAEVKKPGSSVKVSCKASGGTFSEYAIVWVRQAPGQGLEWMGGIIPLFGTANYAQKFQGRVTITADESTSTAYMELSSLRSEDTAVYYCARPLDRRIVAFDIWGQGTMVTVSS
VL: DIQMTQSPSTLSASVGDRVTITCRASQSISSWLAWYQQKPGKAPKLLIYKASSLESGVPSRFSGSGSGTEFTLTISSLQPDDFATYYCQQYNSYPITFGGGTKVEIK
notes: Vk1-05 common light chain; also called PD-L2-C2-1; cLC-PDL2 (22726)

- Kd (Human PD-L2-Fc [8]): 1990 pM
- binding result (Human PD-L1-Fc [9]): no binding (tested: 100 nM)
B9: ADI-20241 Fab (Fab, V domains shown)
VH: QVQLVQSGAEVKKPGSSVKVSCKASGGTFSEYAIVWVRQAPGQGLEWMGGIIPLFGTANYAQKFQGRVTITADESTSTAYMELSSLRSEDTAVYYCARPLDRRIVAFDIWGQGTMVTVSS
VL: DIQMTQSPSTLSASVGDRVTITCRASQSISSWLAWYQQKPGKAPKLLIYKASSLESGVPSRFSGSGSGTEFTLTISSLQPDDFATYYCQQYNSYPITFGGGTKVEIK
notes: also called cLC-PDL2 (22726) Fab

- EC50 (read off the curve); luciferase fold induction, Promega CHO-PD-L1/PD-L2 / PD-1 Jurkat assay, combined blockade of PD-L1 and PD-L2 [Cont'd] [6]: ~600 pM
- EC50 (read off the curve); luciferase fold induction, Promega CHO-PD-L1/PD-L2 / PD-1 Jurkat assay, combined blockade of PD-L1 and PD-L2 [Cont'd] [7]: ~600 pM
B10: DiPDL candidate C2 (bispecific antibody, V domains shown)
VH 1: QVQLVQSGAEVKKPGSSVKVSCKASGGTFSSYFISWVRQAPGQGLEWMGQIIPNVGTANYAQKFQGRVTITADESTSTAYMELSSLRSEDTAVYYCARDQTAKAHLVWGQGTLVTVSS
VH 2: QVQLVQSGAEVKKPGSSVKVSCKASGGTFSEYAIVWVRQAPGQGLEWMGGIIPLFGTANYAQKFQGRVTITADESTSTAYMELSSLRSEDTAVYYCARPLDRRIVAFDIWGQGTMVTVSS
VL: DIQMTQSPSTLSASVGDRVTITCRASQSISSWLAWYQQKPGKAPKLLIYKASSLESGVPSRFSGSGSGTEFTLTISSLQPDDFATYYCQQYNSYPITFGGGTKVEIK

— patent US20250129167A1 (University of Texas, published 2025)
